Publication PMC12416549 (2024)
Numbering of substitutions follows the chain as printed. Names may count otherwise.

T1: TNFR1 (Homo sapiens, UniProt P19438)
T1 chain: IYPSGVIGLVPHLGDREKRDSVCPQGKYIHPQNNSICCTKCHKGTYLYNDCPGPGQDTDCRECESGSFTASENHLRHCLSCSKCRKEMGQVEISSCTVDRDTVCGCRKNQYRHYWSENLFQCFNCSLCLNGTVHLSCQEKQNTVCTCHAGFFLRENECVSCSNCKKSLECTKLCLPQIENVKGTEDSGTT

B1: Y101H (designed binder)
chain: SMEEEVEKAAKEYEKKKKEAIEKHLEKLKAKDKEAAERFLKELEEAAKEYAKDEAKTMSEEEAKRRAKKYKEKVLLSELSEEEQKEIKEAEEKLVRTILKHVEEAAK
B2: A10L (designed binder)
chain: B1 chain with A10L, H101Y
B3: K48T (designed binder)
chain: B1 chain with K48T, H101Y
B4: E37Q (designed binder)
chain: B1 chain with E37Q, H101Y
B5: K100T (designed binder)
chain: B1 chain with K100T, H101Y
B6: E54P (designed binder)
chain: B1 chain with E54P, H101Y
B7: E12I (designed binder)
chain: B1 chain with E12I, H101Y
B8: A20Q (designed binder)
chain: B1 chain with A20Q, H101Y
B9: K18V (designed binder)
chain: B1 chain with K18V, H101Y
B10: A47I (designed binder)
chain: B1 chain with A47I, H101Y
B11: K107L (designed binder)
chain: B1 chain with H101Y, K107L
B12: E7G (designed binder)
chain: B1 chain with E7G, H101Y
B13: K73V (designed binder)
chain: B1 chain with K73V, H101Y
B14: D32S (designed binder)
chain: B1 chain with D32S, H101Y
B15: K52F (designed binder)
chain: B1 chain with K52F, H101Y
B16: K29A (designed binder)
chain: B1 chain with K29A, H101Y
B17: A9P (designed binder)
chain: B1 chain with A9P, H101Y
B18: K68Q (designed binder)
chain: B1 chain with K68Q, H101Y
B19: K107I (designed binder)
chain: B1 chain with H101Y, K107I
B20: Q84Y (designed binder)
chain: B1 chain with Q84Y, H101Y
B21: E45Y (designed binder)
chain: B1 chain with E45Y, H101Y
B22: A63N (designed binder)
chain: B1 chain with A63N, H101Y
B23: K52T (designed binder)
chain: B1 chain with K52T, H101Y
B24: Y70A (designed binder)
chain: B1 chain with Y70A, H101Y

Target: T1, TNFR1
Experiment: yeast display SC50

Binder | apparent Kd (screen)
B1 | 0.49 nM
B2 | 0.956 nM
B3 | 0.49 nM
B4 | 0.539 nM
B5 | 0.869 nM
B6 | 7.07 nM
B7 | 1.05 nM
B8 | 1.69 nM
B9 | 1.27 nM
B10 | 0.49 nM
B11 | 2.73 nM
B12 | 3 nM
B13 | 10.4 nM
B14 | 0.446 nM
B15 | 1.05 nM
B16 | 0.446 nM
B17 | 13.8 nM
B18 | 0.653 nM
B19 | 1.86 nM
B20 | 13.8 nM
B21 | 2.73 nM
B22 | 6.43 nM
B23 | 0.446 nM
B24 | 4.83 nM
